Measured values: paper PMC8471396
Several values for one entry are separate records, joined by “and”; a condition that tells them apart may be missing. Identical values can stand only once.

Legend:
[1] = target: succinate-acetate permease (SatP) from Citrobacter koseri ATCC BAA-895 (Citrobacter koseri ATCC BAA-895); experiment: SDS-PAGE and Western blot of oligomer bands; SatP in SMA native nanodiscs from E. coli membranes, after the nickel affinity column; no cross-linker; anti-His Western blot
[2] = target: succinate-acetate permease (SatP) from Citrobacter koseri ATCC BAA-895 (Citrobacter koseri ATCC BAA-895); experiment: cross-linking; SatP in DOPC/DOPG liposomes, 10 uM protein in 20 mM HEPES pH 7.3; 0.5 mM BS3 (DMSO as control), room temperature, 1 h; 4-20% gradient SDS-PAGE

stoichiometry N [1]: 6 | stoichiometry N [2]: 6 and 5 and 4
Substance: succinate-acetate permease (SatP) from Citrobacter koseri ATCC BAA-895 (natural protein)
